Source: PMC11879458

Tests used:
Experiment in all cases: EMSA
ADR-2 = ADR-2 (Caenorhabditis elegans, UniProt Q22618 1-495)
[1] = target: ADR-2 (ΔdsRBD);ADBP-1 (Δ1-66 aa) (Caenorhabditis elegans;Caenorhabditis …, UniProt Q22618;G5EDW1 1-35+106-495;67-217, internal_change|del1-66)
ADR-2;ADBP-1 = ADR-2;ADBP-1 (Caenorhabditis elegans;Caenorhabditis …, UniProt Q22618;G5EDW1 1-495;1-217, |)

B1: FAM-dsRNA 21 bp (dsRNA)
RNA 1: AAGGAUUACUGUAGUUUUCGC
RNA 2: GCGAAAACUACAGUAAUCCUU
binding result (ADR-2): binds | binding result [1]: no binding | binding result (ADR-2;ADBP-1): binds
